Reference: the supplement of paper PMC10567573

B1: PKD2L1 (parent)
chain: SGPEAARAGGWVSGEEFYMLTRRV
B2: KLHL13 (parent)
chain: TGEFLKLPFERLAFVLSSNSLKHC

Variants of: B1
Assay: protein stability index of a GFP-peptide fusion (GPS, HEK-293T) (PSI 1-6); higher = more stable
Conditions: c terminus: a fixed tail appended
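Note: lentivirally expressed fusions sorted by FACS into six bins by GFP to DsRed ratio, PSI derived from sequencing read proportions per bin multiplied by bin number.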

Protein stability index of substitutions, site by site:
R23: T 2.07; Y 2.44; W 2.87; V 2.16
V24: Q 3.01; T 2.98; S 2.67; G 2.48; E 3.16; I 1.96; L 1.98; K 3.63; W 2.14; R 2.63; D 3.54; H 2.72; A 1.97; Y 2.07; M 1.71; C 2.08; P 2.81; F 1.71; N 2.66

Variants of: B2
Assay: as above
Conditions: c terminus: a fixed tail appended

Protein stability index, by site and new letter:
G2: K 2.12; F 3.56; H 3.72; I 4.78; N 2.52
L5: R 2.16; D 2.48; T 2.54; N 1.52; C 2.26; H 1.78; Q 2.06; K 1.85; A 1.6; E 1.72; Y 1.8
F4: A 2.92; D 1.55; P 1.62; R 1.13; I 1.31; W 2.03; E 1.42; G 1.45; N 1.48; Y 2.4; K 1.78; S 3.3
L7: A 1.73; P 2.87; E 1.08; K 1.86; I 3.09; T 3.88; W 4.29; Q 1.19; D 1.25
R11: V 3.99; G 2.54; K 3.47; T 4.01; F 3.1; M 3.39; E 2.48; Y 4.43; A 3.93; Q 3.1; W 2.11; D 2.08; H 1.62; S 3.23; P 3.17; C 2.12; N 3.3
L12: M 3.48; D 2.38; C 3.25; P 1.77; Y 1.76; N 2.15; A 1.99; Q 2.11; T 1.53; S 1.92; E 1.96; F 3.73; R 2.35; V 1.44; K 2.12; H 2.27; G 2.83
K6: I 2.34; P 2.01; S 3.28; T 2.73; A 3.83; C 2.54; L 3.24; D 1.38
A13: E 1.71; D 2.08; C 2.41; I 3.35; G 1.6; F 1.67; H 1.72
E10: S 2.96; C 2.48; P 2.75; G 2.42; W 3.59; R 4.24; K 2.76; T 2.76; M 3.02; L 2.88; Q 2.03; N 1.99; A 3.65; H 2.69; Y 3.3; D 3.16
E3: T 1; Q 4.44; V 2.28; H 2.67; N 5.52; R 2.35; D 3.15; A 2.21; G 4.77; P 2.66; Y 3.14
T1: E 2.1; L 3.16; H 3.25; Q 2.82; R 3.17
F9: G 2.18; K 2.56; C 1.82; A 2.33; D 2.04; V 2.23; Y 2.7; M 3.01; L 3.5; R 1.65; S 2.07; T 1.65; I 3.04; N 1.8; Q 2.6; E 2.22; P 2.04; H 1.71; W 3.18
P8: M 3.97; C 1.84; T 3.92; D 1.58; N 2.66; Q 1.41; Y 4.25
